How the values were obtained:
[1] = molecular target: T1, human GPRC5D (G protein-coupled receptor class C group 5 member D), on cells (human, UniProt Q9NZD1 1-345); assay: FACS, hybridoma supernatant on 293T cells expressing human GPRC5D
T1 construct: whole, on cells; also called hGPRC5D
Experimental: (§1) 293T cells expressing human GPRC5D as described above was prepared into a suspension at concentration of 1×10⁵ cells/ml in PBS containing 2% FBS.
(§2) 1 ml of FACS buffer was added to each FACS tube, centrifuged at 1200 rpm for 5 mins. The supernatant was discarded followed by washing three times. At the same time, control tube 1 (no supernatant of the culture and the secondary antibody mentioned below, adding only cell suspension) and control tube 2 (no supernatant of the culture, adding only cell suspension and the secondary antibody mentioned below) were included.
(§3) 100 μl of FACS buffer was then added to each FACS tube for resuspension. 5 μl of PE-labeled, anti-murine Fc tagged secondary antibody (Biolegend, catalog number 409304) was added according to instructions, and incubated at 4° C. in the dark for 30 mins. Then 1 ml of FACS buffer was added, and centrifuged at 1200 rpm at room temperature for 5 mins. The supernatant was discarded followed by washing three times.

[2] = molecular target: T2, Nalm6 cells (NALM6, Kyinno, catalog number KC-0626); assay: FACS, hybridoma supernatant on Nalm6 cells
T2 construct: Kept apart from human GPRC5D so that the low MFI values on this line are not laid to the GPRC5D pair

[3] = molecular target: T1, human GPRC5D (G protein-coupled …); assay: FACS, hybridoma supernatant on MM1R cells
[4] = molecular target: T1, human GPRC5D (G protein-coupled …); assay: cell ELISA, hybridoma supernatant on fixed BXPC-3 cells expressing human GPRC5D
Experimental: BXPC-3 cells expressing human GPRC5D (Kyinno, catalog number KC-1717) were prepared into a suspension at concentration of 1×10⁵ cells/ml in PBS containing 2% FBS. The suspension was added to a 96-well plate at 100 μl/well and cultured overnight at 37° C. The wells were cleared of their contents and washed three times with washing solution. 80 μl of 4% tissue fixative (Beyotime, catalog number P0099) was added to each well followed by fixing at room temperature for 15 min, washing twice with PBS and drying. 250 μl of blocking solution containing 2% BSA was added to each well followed by incubation at 37° C. for 1 hr and washing three times with PBS. 50-100 μl of the supernatant of the hybridoma cell culture was added to each well. A positive control (adding serum from fusion mice), a negative control (adding serum from normal mice) and a blank control (adding culture medium) were included. The wells were incubated at 37° C. for 1-2 hrs, washed, and dried. Then, the enzyme-labeled secondary antibody, HRP-labeled goat anti-mouse IgG (SIGMA, catalog number A9044-2 ml) was added at dilution of 1:10000 and 50-100 μl/well. The wells were incubated at 37° C. for 1-2 hrs, washed, and dried. 50-100 μl of freshly prepared developing solution TMB was added to each well and incubated at 37° C. for 10-30 mins.
2 mol/L H₂SO₄ was added to terminate the reaction, and the OD value was read on an enzyme-linked immunosorbent reader.

[5] = molecular target: T3, monkey (cyno) GPRC5D, on 293T cells (monkey (cyno)); assay: FACS, hybridoma supernatant on 293T cells expressing monkey GPRC5D
T3 construct: whole, on cells; also called monkey GPRC5D
Source text: (§4) According to the method described in Example 4, the binding between the culture supernatant of the hybridoma cells and monkey GPRC5D was detected, except that the human GPRC5D-expressing cells were replaced with 293T cells expressing monkey GPRC5D (Kyinno, catalog number KC-1586).

[6] = molecular target: T1, human GPRC5D (G protein-coupled …); assay: FACS, hybridoma supernatant on 293T cells expressing human GPRC5D; remark: listed apart in the source
Experimental: as §1, §2, §3

[7] = molecular target: T1, human GPRC5D (G protein-coupled …); assay: as above; remark: listed apart in the source
Experimental: as §1, §2, §3

[8] = molecular target: T1, human GPRC5D (G protein-coupled …); assay: FACS, hybridoma supernatant on NCI-H929 cells
Experimental: as §3

[9] = molecular target: T3, monkey (cyno) GPRC5D, on 293T cells; assay: FACS, hybridoma supernatant on 293T cells expressing monkey GPRC5D; remark: listed apart in the source
Source text: as §4

[10] = molecular target: T1, human GPRC5D (G protein-coupled …); assay: FACS, hybridoma supernatant on OPM2 cells
[11] = molecular target: T1, human GPRC5D (G protein-coupled …); assay: FACS, hybridoma supernatant on 293T cells expressing human GPRC5D; remark: listed apart in the source
Experimental: as §1, §2, §3

[12] = molecular target: T4, human GPRC5C, on 293T cells (human, UniProt Q9NQ84 24-441); assay: FACS on 293T-GPRC5C cells, antibody at 2 µg/mL; control tubes 8.86 and 8.73
T4 construct: whole, on cells; also called 293T-GPRC5C
Experimental: as §3
(§5) The experimental process was as described in Example 4, cells expressing other members of G protein-coupled receptor class C group 5 as follows were used: 293T cells expressing human GPRC5A, 293T-GPRC5A (Kyinno, catalog number KC-1888), 293T cells expressing human GPRC5B, 293T-GPRC5B (Kyinno, catalog number KC-1854), and 293T cells expressing human GPRC5C, 293T-GPRC5C (Kyinno, catalog number KC-1889). […] Control tube 1 (no antibody and secondary antibody, adding only cell suspension) and Control tube 2 (no antibody, adding only cell suspension and secondary antibody) were included.

[13] = molecular target: T5, human GPRC5B, on 293T cells (human, UniProt Q9NZH0 29-403); assay: FACS on 293T-GPRC5B cells, antibody at 2 µg/mL; control tubes 8.55 and 8.26
T5 construct: whole, on cells; also called 293T-GPRC5B
Experimental: as §3, §5

[14] = molecular target: T3, monkey (cyno) GPRC5D, on 293T cells; assay: FACS on 293T cells expressing monkey (cyno) GPRC5D (run with 6E97(hz))
Experimental: as §3
(§6) The experimental process was as described in Example 4. […] Control tube 1 (no antibody and secondary antibody, adding only cell suspension) and Control tube 2 (no antibody, adding only cell suspension and secondary antibody) were included.

[15] = molecular target: T3, monkey (cyno) GPRC5D, on 293T cells; assay: FACS on 293T cells expressing monkey GPRC5D
Source text: as §4

[16] = molecular target: T3, monkey (cyno) GPRC5D, on 293T cells; assay: FACS on 293T cells expressing monkey (cyno) GPRC5D (run with 9D7(hz))
Experimental: as §3, §6

[17] = molecular target: T3, monkey (cyno) GPRC5D, on 293T cells; assay: FACS on 293T cells expressing monkey (cyno) GPRC5D (run with 24F5(hz))
Experimental: as §3, §6

T1 sequence (Q9NZD1 whole entry): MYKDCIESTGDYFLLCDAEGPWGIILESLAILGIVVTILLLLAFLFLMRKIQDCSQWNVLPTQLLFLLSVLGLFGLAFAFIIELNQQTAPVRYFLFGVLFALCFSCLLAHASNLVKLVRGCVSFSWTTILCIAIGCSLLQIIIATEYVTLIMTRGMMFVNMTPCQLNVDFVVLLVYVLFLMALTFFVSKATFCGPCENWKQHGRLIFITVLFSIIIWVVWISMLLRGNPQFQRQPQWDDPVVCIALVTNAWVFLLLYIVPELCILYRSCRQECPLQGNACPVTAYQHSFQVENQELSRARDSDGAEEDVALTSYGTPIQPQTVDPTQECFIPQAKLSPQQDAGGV
T5 sequence (Q9NZH0 29-403): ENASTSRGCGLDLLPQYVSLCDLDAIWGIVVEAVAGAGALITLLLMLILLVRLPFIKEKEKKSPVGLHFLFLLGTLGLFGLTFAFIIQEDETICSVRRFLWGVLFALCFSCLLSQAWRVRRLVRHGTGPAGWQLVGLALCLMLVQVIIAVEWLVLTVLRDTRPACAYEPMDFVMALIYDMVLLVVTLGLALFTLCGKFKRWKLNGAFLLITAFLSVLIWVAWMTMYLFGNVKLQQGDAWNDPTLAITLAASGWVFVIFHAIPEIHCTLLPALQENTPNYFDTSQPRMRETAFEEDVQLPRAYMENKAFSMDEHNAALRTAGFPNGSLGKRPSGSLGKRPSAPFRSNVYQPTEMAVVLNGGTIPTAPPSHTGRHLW
T4 sequence (Q9NQ84 24-441): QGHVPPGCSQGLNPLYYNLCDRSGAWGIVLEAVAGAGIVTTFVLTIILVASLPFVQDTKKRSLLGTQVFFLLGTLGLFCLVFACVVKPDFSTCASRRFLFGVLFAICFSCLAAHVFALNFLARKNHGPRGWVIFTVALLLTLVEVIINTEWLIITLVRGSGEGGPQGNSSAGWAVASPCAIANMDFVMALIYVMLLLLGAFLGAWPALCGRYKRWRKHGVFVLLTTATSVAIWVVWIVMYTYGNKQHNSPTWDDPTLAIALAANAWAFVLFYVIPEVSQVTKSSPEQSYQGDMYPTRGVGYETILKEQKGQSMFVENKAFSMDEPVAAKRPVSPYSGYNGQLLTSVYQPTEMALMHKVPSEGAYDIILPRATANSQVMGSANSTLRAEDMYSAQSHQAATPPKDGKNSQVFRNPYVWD

Binder | EC50 [1] | MFI.Max [2] | MFI.Max [3] | OD value [4] | EC50 [7] | MFI.Max [7] | MFI.Max [8] | EC50 [9] | MFI.Max [9] | EC50 [10] | MFI.Max [10] | other results
GPRC5D×CD3 JNJ (anti-hGPRC5D×CD3 bispecific antibody built with the GPRC5D-targeting and CD3-targeting domains of Talquetamab, JNJ-64407564) (bispecific antibody, human IgG1, kappa, lambda, used as the positive control antibody throughout; also called Positive control antibody) heavy 1: QVQLVQSGAEVKKPGASVKVSCKASGYSFTGYTMNWVRQAPGQGLEWMGLINPYNSDTNYAQKLQGRVTMTTDTSTSTAYMELRSLRSDDTAVYYCARVALRVALDYWGQGTLVTVSSASTKGPSVFPLAPSSKSTSGGTAALGCLVKDYFPEPVTVSWNSGALTSGVHTFPAVLQSSGLYSLSSVVTVPSSSLGTQTYICNVNHKPSNTKVDKRVEPKSCDKTHTCPPCPAPPAAGPSVFLFPPKPKDTLMISRTPEVTCVVVDVSHEDPEVKFNWYVDGVEVHNAKTKPREEQYNSTYRVVSVLTVLHQDWLNGKEYKCKVSNKALAAPIEKTISKAKGQPREPQVYTLPPCREEMTKNQVSLWCLVKGFYPSDIAVEWESNGQPENNYKTTPPVLDSDGSFLLYSKLTVDKSRWQQGNVFSCSVMHEALHNHYTQKSLSLSPGK heavy 2: QTVVTQEPSLTVSPGGTVTLTCRSSTGAVTTSNYANWVQQKPGQAPRGLIGGTNKRAPGTPARFSGSLLGGKAALTLSGVQPEDEAEYYCALWYSNLWVFGGGTKLTVLSSASTKGPSVFPLAPSSKSTSGGTAALGCLVEDYFPEPVTVSWNSGALTSGVHTFPAVLQSSGLYSLSSVVTVPSSSLGTQTYICNVNHKPSNTKVDDRVEPKSCDKTHTCPPCPAPPAAGPSVFLFPPKPKDTLMISRTPEVTCVVVDVSHEDPEVKFNWYVDGVEVHNAKTKPREEQYNSTYRVVSVLTVLHQDWLNGKEYKCKVSNKALAAPIEKTISKAKGQPREPQVCTLPPSREEMTKNQVSLSCAVKGFYPSDIAVEWESNGQPENNYKTTPPVLDSDGSFFLVSRLTVDKSRWQQGNVFSCSVMHEALHNHYTQKSLSLSPGK light 1: DIQMTQSPSSLSASVGDRVTITCKASQNVATHVGWYQQKPGKAPKRLIYSASYRYSGVPSRFSGSGSGTEFTLTISNLQPEDFATYYCQQYNRYPYTFGQGTKLEIKRTVAAPSVFIFPPSDEQLKSGTASVVCLLNNFYPREAKVQWKVDNALQSGNSQESVTEQDSKDSTYSLSSTLTLSKADYEKHKVYACEVTHQGLSSPVTKSFNRGEC light 2: EVQLVESGGGLVQPGGSLRLSCAASGFTFNTYAMNWVRQAPGKGLEWVARIRSKYNNYATYYAASVKGRFTISRDDSKNSLYLQMNSLKTEDTAVYYCARHGNFGNSYVSWFAYWGQGTLVTVSSGQPKAAPSVTLFPPSSEELQANKATLVCLISDFYPGAVTVAWKADSSPVKAGVETTTPSKQSNNKYAASSYLSLTPEQWKSHRSYSCQVTHEGSTVEKTVAPTECS | – | – | – | – | – | – | – | – | – | – | – | FACS result [12]: 8.72; FACS result [13]: 8.44; EC50 [14]: 3.27 µg/mL; EC50 [15]: 13.1 µg/mL; EC50 [16]: 14 µg/mL; EC50 [17]: 4.39 µg/mL
murine antibody 6E97 (A4 antibody) (antibody, V domains shown, Tested as hybridoma cell culture supernatant; also called murine anti-6E97) VH: QVQLKESGPELVKPGASVKISCKASGYTFPYYVIHWVKQKPGQGLEWIGYINPYNDGTKYNEKFKGKAALTSDKSSSTAYMELSSLTSEDSAVYYCARGGVRRYFDYWGQGTTLTVSS VL: QIVLTQSPSSLSASLGERVSLTCRASQDIGSNLNWLQQEPDGTIKRLISATSSLDSGVPKRFSGSRSGSDYSLTISSLESEDFVDYFCLQYATFPYTFGGGTKLEIK | – | 62.4 MFI | 931 MFI | 1.55 OD | 0.111 µg/mL | 9610 MFI | 900 MFI | 0.243 µg/mL | 6290 MFI | 0.291 µg/mL | 1080 MFI | –

Second part, led by results:

EC50 [1] | MFI.Max [2] | MFI.Max [3] | OD value [4] | EC50 [7] | MFI.Max [7] | MFI.Max [8] | EC50 [9] | MFI.Max [9] | EC50 [10] | MFI.Max [10] | Binder | other results
0.185 µg/mL | 10.8 MFI | 554 MFI | 0.541 OD | 0.183 µg/mL | 9380 MFI | 506 MFI | 0.376 µg/mL | 5440 MFI | 0.177 µg/mL | 705 MFI | murine antibody 9D7 (A1 antibody) (antibody, V domains shown, Tested as hybridoma cell culture supernatant; also called murine anti-9D7) VH: QVQLKESGPGLVKPSQSLSLTCTVTGYSITSDYAWNWIRQFPGNKLEWMGYISYSGSATYNPSLKSRISITRDTSKNQFFLQLNSMTTEDTATYYCARGGIAGRGRWGAMDYWGQGTSVTVSS VL: DIVMTQAQKFMSTSVGDRVSVTCKASQNVGTNVAWYQNKPGQSPKALIYSASYRDSGVPDRFTGRGSGTDFTLTISNVQSEDLAEYFCQQYKSYPLTFGAGTKLELK | EC50 [3]: 0.104 µg/mL; EC50 [5]: 0.229 µg/mL; EC50 [6]: 0.279 µg/mL; EC50 [8]: 0.021 µg/mL
0.169 µg/mL | – | – | 0.871 OD | – | – | – | 12.3 µg/mL | – | – | – | murine antibody 26D1 (A2 antibody) (antibody, V domains shown, Tested as hybridoma cell culture supernatant; also called murine anti-26D1) VH: QVQLKQSGAELAGPGASVKMSCKASGYTFTSYTIQWIKQRPGQGLEWIGYIIPSSGYTNYNQKFKDKATLTADKSSNTAYMQLSSLTSEDSAVYYCANNYGNWGFTYWGQGTLVTVSA VL: DILMTQSQKFMSTSVRDRVSISCKASQNVGSAVTWYQQKPGQSPRLLIYSASNRYTGVPDRFTGSGSGTDFTLTISNVQSEDLADYFCQQYSNYPLTFGGGTKLEIK | EC50 [11]: 0.788 µg/mL
